# B1: Methanocaldococcus jannaschii CorA channel (natural protein)
# chain: MITVIAIAKDGSIVEPKLDEISFEDYRLIWIDCYDPKDEELYKLSKKIGISVSDLQIGLDEQEIPRVEEDEDFYLIIYKAPLFEEDITTTSLGIYIKNNLLLTIHSDKIKAIGRLHKLISTKKPRIVFERGIGFLLYHILNEITRSYSRILMNLEDELEELEDKLLAGYDREVMEKILGLRKTLVYFHKSLIANRDVLVLLKRKYLPITTKEDRENFEDLYYDTLQLIDMSATYREVLTSMMDITLSLENIKMNQIMKILTMVTTIFAVPMWITGIYGMNFSYLPLANNPQGFWLVMALMVVIIMIFVYIFRRSGWI
# notes: CorA magnesium channel of Methanocaldococcus jannaschii (MjCorA); holds the N-terminal, conical and trans-membrane domains; also called MjCorA; source: final buffer 200 mM NaCl, 20 mM Tris/HCl pH8, 0.04% DDM
# Target: the molecule itself
# Test: self-rotation function of X-ray crystallographic data; crystals grown at low pH (0.1 M sodium citrate pH 3.5, 50 mM magnesium sulphate, 50 mM cobalt chloride, 0.1 M NaCl, 13% PEG 4000, 0.9% beta-octylmaltoside); data to 9.0 A, spacegroup P2(1); structure not phased; POLARRFN self-rotation function, data to 12 A
protein,measurement,value
B1,stoichiometry N,5
